Laboratory results from patent US6174679.

Molecular target: T1, CIF150/hTAFII150 (Homo sapiens) (UniProt Q6P1X5)
T1 sequence: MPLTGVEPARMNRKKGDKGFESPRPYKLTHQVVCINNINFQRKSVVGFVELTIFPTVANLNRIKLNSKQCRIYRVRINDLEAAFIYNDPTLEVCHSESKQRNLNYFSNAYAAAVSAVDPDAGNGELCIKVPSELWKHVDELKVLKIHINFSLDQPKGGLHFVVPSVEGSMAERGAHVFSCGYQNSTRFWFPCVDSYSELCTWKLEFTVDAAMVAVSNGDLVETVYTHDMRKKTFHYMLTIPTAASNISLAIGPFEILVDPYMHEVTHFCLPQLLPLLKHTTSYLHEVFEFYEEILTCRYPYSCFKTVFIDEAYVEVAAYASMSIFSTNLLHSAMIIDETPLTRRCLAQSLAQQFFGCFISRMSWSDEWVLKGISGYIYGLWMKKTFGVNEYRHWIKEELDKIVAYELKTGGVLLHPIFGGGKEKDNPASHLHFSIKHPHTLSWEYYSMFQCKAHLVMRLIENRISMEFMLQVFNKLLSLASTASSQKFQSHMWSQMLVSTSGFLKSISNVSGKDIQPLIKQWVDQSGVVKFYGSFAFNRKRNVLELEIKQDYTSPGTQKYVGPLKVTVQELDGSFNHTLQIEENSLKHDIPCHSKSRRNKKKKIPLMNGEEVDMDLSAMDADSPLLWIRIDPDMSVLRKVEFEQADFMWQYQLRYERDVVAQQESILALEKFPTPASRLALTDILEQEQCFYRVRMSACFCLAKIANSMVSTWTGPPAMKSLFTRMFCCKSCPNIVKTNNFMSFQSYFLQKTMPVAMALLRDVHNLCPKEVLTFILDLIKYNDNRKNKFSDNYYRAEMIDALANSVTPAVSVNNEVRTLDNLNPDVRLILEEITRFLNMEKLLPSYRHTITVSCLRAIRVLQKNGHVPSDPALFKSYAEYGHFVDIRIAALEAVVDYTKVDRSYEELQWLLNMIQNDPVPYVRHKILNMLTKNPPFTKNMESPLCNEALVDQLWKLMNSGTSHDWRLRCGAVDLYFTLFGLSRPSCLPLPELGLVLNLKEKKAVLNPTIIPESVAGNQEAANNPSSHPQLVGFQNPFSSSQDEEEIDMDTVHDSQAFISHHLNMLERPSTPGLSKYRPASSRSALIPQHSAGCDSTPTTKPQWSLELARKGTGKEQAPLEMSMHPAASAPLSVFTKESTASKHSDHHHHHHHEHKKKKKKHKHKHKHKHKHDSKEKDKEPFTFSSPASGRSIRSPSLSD
Assay: EMSA
Settings: affinity improvement after selection (text gives both three and four rounds); dGdC competitor; supershifted by anti-CIF150 serum

GAG (double strand) [selected CBE fragments with GAG core]
binding signal: 5 fold
